Blank lines part the entries; values can stand above or below the binder they belong to.
Tests used:
[1] = target: T1, Activin A (R&D Systems, Catalog number 338-AC-050 CF) (UniProt P08476 311-426); assay: cell-based or functional assay
T1 sequence (looked up): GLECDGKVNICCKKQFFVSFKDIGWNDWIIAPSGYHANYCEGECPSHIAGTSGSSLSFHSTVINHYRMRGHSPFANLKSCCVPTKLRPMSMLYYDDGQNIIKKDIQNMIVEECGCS

[2] = target: T2, Myostatin (R&D Systems, Catalogue number 788-G8-010/CF) (UniProt O14793 267-375); assay: cell-based or functional assay
T2 sequence (looked up): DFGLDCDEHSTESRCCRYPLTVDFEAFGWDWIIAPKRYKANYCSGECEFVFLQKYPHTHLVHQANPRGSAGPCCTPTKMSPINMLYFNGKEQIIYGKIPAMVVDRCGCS

Activin A IC50 (nM), luciferase gene reporter assay (Smad3, A204 cells) [1]: 0.8 nM | Myostatin IC50 (nM), luciferase gene reporter assay (Smad3, A204 cells) [2]: 0.7 nM
B1: FS315K(76,81,82)E-mFc (Fc fusion, not shown: a dimerising Fc or GST)
chain: GNCWLRQAKNGRCQVLYKTELSKEECCSTGRLSTSWTEEDVNDNTLFKWMIFNGGAPNCIPCKETCENVDCGPGKECRMNEENKPRCVCAPDCSNITWKGPVCGLDGKTYRNECALLKARCKEQPELEVQYQGRCKKTCRDVFCPGSSTCVVDQTNNAYCVTCNRICPEPASSEQYLCGNDGVTYSSACHLRKATCLLGRSIGLAYEGKCIKAKSCEDIQCTGGKKCLWDFKVGRGRCSLCDELCPDSKSDEPVCASDNATYASECAMKEAACSSGVLLEVKHSGSCNSISEDTEEEEEDEDQDYSFPISSILEW

Activin A IC50 (nM), luciferase gene reporter assay (Smad3, A204 cells) [1]: 0.5 nM | Myostatin IC50 (nM), luciferase gene reporter assay (Smad3, A204 cells) [2]: 0.5 nM
B2: ActRIIB-Fc protein (R&D Systems, Catalogue number 339-RBB-100) (Fc fusion, UniProt Q13705 19-134, looked up, not shown: a dimerising Fc or GST)
chain: SGRGEAETRECIYYNANWELERTNQSGLERCEGEQDKRLHCYASWRNSSGTIELVKKGCWLDDFNCYDRQECVATEENPQVYFCCCEGNFCNERFTHLPEAGGPEVTYEPPPTAPT

Reference: patent US20200247856A1 (SHIRE HUMAN GENETIC THERAPIES, published 2020)
